For one data set, the target named is E. coli MurD (Escherichia coli, UniProt P14900). Particulars: 350 μM UDP-N-acetyl-muramyl-L-alanine.
A further data set concerns S. pyogenes MurD. Description: ATP-dependent MurD activity, pyruvate kinase/lactate dehydrogenase coupled enzyme assay (ADP formation). Format: biochemical, Streptococcus pyogenes. Particulars: partially purified, UDP-N-acetylmuramyl-L-ala 350 μM, D-glutamate 1 mM, ATP 1 mM, 200 μl, 25° C. On the procedure: The cell pellet from 100 ml of induced culture prepared as described above was resuspended in 10 ml BT buffer (50 mM bis-tris-propane, pH 8.0, containing 100 mM potassium chloride and 1% glycerol) at 4° C. Cells were lysed either by freeze-thaw or by French Press. After centrifugation, the supernatant was mixed with 15 ml of freshly prepared Talon resin and incubated for 30 min at room temp. The resin was washed twice by centrifugation with 25 ml of BT buffer at room temperature. Finally, the resin loaded into a column and washed with 20 ml of BT, pH 7.0, containing 5 mM imidazole. Protein was eluted with 20 ml of BT buffer pH 8.0, containing 100 mM imidazole. Fractions (0.5 ml) were collected and analyzed by SDS-Gel electrophoresis. Fractions containing MurD were pooled, cleaved with thrombin (20 units/mg of His-tagged MurD) to remove the histidine tag. Finally the MurD protein was purified on Superdex 75 size exclusion column and eluted in 10 mM tris, pH 7.4, 150 mM NaCl and dialyzed in 100 mM MOPS, pH 7.5, using a Slide-A-Lyzer (Pierce, Rockford, Ill.). […] The protein may be purified further, if desired, using methods known in the art.
The reaction was monitored spectrophotometrically.

Sequence of E. coli MurD (P14900 whole entry): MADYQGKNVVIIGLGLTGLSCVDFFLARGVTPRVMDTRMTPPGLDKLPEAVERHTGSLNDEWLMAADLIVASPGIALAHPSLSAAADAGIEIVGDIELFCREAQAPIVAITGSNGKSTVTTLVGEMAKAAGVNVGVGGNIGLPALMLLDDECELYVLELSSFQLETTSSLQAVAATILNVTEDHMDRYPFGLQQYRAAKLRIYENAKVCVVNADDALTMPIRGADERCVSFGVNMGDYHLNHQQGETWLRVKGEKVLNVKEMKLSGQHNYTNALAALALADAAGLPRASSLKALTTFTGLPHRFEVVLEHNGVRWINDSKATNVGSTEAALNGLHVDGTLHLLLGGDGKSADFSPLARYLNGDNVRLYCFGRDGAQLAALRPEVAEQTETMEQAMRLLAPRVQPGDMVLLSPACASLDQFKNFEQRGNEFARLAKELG
Description for E. coli MurD: The ATP-dependent MurD activity was assayed by monitoring the formation of product ADP using the pyruvate kinase and lactate dehydrogenase coupled enzyme assay. The reaction was monitored spectrophotometrically.
Typically, the assay contained 100 mM BIS-TRIS-propane, pH 8.0, 200 μM NADH, 1 mM ATP, 20 mM PEP, 5 mM MgCl2, 1 mM DTT, 350 μM UDP-N-acetyl-muramyl-L-alanine, 1 mM D-glutamate, 33 units/ml of pyruvate kinase and 1660 units/ml of lactate dehydrogenase in a final volume of 200 or 400 μL. The mixture was incubated at 25° C. for 5 min and the reaction initiated by the addition of 1-10 μg of MurD. ADP formation was monitored by the decrease in absorbance at 340 nm as a function of time using a Molecular Devices SpectramaxPlus microtiterplate spectrophotomer (for 200 μl assays) or a Hewlett-Packard HP8452A spectrophotometer equipped with a circulating water bath (for 400 μl assays). Rates were calculated from the linear portions of the progress curves using the extinction coefficient for NADH, e=6220 cm^−1 M^−1. One unit of MurD activity is equal to 1 μmol of ADP formed per min at 25° C.
Assays have been conducted using 120 and 350 μM UDP-N-acetyl-muramyl-L-alanine.

Turning to `CC(=O)N[C@H]1C(OP(=O)(O)OP(=O)(O)OC[C@H]2O[C@@H](n3ccc(=O)[nH]c3=O)[C@H](O)[C@@H]2O)O[C@H](CO)[C@@H](O)[C@@H]1O[C@H](C)C(=O)N[C@H](C)C(=O)O` (stereo partly drawn) [UDP-N-acetyl-muramyl-L-alanine], the “substrate inhibition of the E. coli MurD” value at E. coli MurD is on record as “substrate inhibition”.

B1: S. pyogenes: recombinant Streptococcus pyogenes MurD protein (SEQ ID NO:2), His-tag removed, partially purified (protein)
chain: MKVISNFQNKKILILGLAKSGEAAAKLLTKLGALVTVNDSKPFDQNPAAQALLEEGIKVICGSHPVELLDEDFEYMVKNPGIPYDNPMVKRALAKEIPILTEVELAYFVSEAPIIGITGSNGKTTTTTMIADVLNAGGQSALLSGNIGYPASKVVQKAIAGDTLVMELSSFQLVGVNAFRPHIAVITNLMPTHLDYHGSFEDYVAAKWMIQAQMTESDYLILNANQEISATLAKTTQATVIPFSTQKVVDGAYLKDGILYFKEQAIIAATDLGVPGSHNIENALATIAVAKLSGIADDIIAQCLSHFGGVKHRLQRVGQIKDITFYNDSKSTNILATQKALSGFDNSRLILIAGGLDRGNEFDDLVPDLLGLKQMIILGESAERMKRAANKAEVSYLEARNVAEATELAFKLAQTGDTILLSPANASWDMYPNFEVRGDEFLATFDCLRGDA
modifications: His-tag removed; Streptococcus pyogenes MurD
Regarding B1, the units in the data set with S. pyogenes MurD (0.00137 mg protein) stood at 0.00017 µmol/min. In the data set with S. pyogenes MurD, this molecule showed a Specific activity of 0.13 µmol/min/mg.

(Values after US6746858B1, “Murd protein and gene of Streptococcus pyogenes” (Merck & Co. Inc., priority 1997, dated 2004).)
